Laboratory results: PMC6135694, “A high-throughput fluorescence polarization assay for discovering inhibitors targeting the DNA-binding domain of signal transducer and activator of transcription 3 (STAT3)”

B1: unlabelled consensus DNA 12-mer (dsDNA)
DNA 1: ATTTCCCGTAAA
DNA 2: TTTACGGGAAAT
B2: unlabelled non-consensus DNA 12-mer (dsDNA)
DNA 1: GTACCATGGTAC
DNA 2: GTACCATGGTAC

Molecular target: STAT3 127-688 (UniProt P40763 127-688)
Test: competition (fluorescence polarization); competitor vs 20 nM Bodipy-DNA N1, 480 nM protein; 24 hr, 4 C; FP: 20 nM Bodipy-DNA, 480 nM STAT3 127-688, 25 mM Tris pH 8.5 (protein purification and DNA annealing buffer; full assay buffer not in material), NaCl < 200 uM
Settings: protein: recombinant, blunt

STAT3 127-688, sequence (P40763 127-688): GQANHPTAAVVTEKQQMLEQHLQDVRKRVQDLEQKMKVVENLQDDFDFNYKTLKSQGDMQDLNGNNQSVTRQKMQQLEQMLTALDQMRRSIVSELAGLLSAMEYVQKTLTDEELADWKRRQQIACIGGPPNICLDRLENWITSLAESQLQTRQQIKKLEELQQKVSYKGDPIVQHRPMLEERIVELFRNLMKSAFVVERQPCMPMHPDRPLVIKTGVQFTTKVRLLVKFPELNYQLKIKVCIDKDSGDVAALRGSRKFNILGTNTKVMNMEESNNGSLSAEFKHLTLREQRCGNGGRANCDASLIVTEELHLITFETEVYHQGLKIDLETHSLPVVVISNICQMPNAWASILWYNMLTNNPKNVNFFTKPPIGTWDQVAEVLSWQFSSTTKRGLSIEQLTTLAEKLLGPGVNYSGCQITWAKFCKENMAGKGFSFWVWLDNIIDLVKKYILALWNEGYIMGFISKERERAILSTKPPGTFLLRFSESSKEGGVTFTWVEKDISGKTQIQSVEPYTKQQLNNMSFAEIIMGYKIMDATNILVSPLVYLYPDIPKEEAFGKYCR

Row | Binder | IC50 | IC50 (self-complementary, 2 copies of strand)
1 | B1 | 300 ± 200 nM | 
2 | B2 |  | 2300 ± 660 nM
